What was measured:
[1] = system: AncSZ; experiment: phosphorylation enrichment, bacterial display (enrichment ratio); higher = better substrate or ligand; peptides without Tyr show the background
[2] = biological target: EPHB1 (UniProt P54762); experiment: as above
[3] = biological target: EPHB2 (UniProt P29323); experiment: as above
[4] = biological target: FGFR1 (UniProt P11362); experiment: as above
[5] = biological target: FGFR3 (UniProt P22607); experiment: as above
[6] = system: Fer (mouse); experiment: as above
[7] = biological target: Fes (UniProt P07332); experiment: as above
Fes, sequence (P07332 whole entry, looked up): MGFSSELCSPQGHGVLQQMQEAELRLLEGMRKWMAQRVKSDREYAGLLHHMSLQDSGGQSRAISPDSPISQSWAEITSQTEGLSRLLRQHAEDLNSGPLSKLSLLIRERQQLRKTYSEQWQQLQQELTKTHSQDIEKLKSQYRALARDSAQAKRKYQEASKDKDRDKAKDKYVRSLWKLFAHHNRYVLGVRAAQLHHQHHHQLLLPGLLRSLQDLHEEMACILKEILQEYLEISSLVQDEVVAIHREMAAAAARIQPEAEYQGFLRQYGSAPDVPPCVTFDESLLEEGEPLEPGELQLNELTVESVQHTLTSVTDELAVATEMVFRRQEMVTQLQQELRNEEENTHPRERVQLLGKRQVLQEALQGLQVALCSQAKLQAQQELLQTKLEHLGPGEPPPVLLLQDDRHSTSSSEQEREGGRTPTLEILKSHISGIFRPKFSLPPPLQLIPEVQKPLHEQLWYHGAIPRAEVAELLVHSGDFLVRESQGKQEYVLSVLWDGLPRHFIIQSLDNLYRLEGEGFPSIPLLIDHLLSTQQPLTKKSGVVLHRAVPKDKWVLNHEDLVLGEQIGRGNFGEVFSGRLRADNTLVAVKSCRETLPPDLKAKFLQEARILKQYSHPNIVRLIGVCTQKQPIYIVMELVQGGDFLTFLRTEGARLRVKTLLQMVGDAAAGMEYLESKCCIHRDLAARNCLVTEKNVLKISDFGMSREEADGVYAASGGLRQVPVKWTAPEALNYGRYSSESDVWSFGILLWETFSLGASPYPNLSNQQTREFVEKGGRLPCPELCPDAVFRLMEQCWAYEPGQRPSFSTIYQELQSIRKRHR

[8] = biological target: Fyn (UniProt P06241); experiment: as above
[9] = biological target: Hck (UniProt P08631); experiment: as above
[10] = biological target: Jak2 (UniProt O60674); experiment: as above
Jak2, sequence (O60674 whole entry, looked up): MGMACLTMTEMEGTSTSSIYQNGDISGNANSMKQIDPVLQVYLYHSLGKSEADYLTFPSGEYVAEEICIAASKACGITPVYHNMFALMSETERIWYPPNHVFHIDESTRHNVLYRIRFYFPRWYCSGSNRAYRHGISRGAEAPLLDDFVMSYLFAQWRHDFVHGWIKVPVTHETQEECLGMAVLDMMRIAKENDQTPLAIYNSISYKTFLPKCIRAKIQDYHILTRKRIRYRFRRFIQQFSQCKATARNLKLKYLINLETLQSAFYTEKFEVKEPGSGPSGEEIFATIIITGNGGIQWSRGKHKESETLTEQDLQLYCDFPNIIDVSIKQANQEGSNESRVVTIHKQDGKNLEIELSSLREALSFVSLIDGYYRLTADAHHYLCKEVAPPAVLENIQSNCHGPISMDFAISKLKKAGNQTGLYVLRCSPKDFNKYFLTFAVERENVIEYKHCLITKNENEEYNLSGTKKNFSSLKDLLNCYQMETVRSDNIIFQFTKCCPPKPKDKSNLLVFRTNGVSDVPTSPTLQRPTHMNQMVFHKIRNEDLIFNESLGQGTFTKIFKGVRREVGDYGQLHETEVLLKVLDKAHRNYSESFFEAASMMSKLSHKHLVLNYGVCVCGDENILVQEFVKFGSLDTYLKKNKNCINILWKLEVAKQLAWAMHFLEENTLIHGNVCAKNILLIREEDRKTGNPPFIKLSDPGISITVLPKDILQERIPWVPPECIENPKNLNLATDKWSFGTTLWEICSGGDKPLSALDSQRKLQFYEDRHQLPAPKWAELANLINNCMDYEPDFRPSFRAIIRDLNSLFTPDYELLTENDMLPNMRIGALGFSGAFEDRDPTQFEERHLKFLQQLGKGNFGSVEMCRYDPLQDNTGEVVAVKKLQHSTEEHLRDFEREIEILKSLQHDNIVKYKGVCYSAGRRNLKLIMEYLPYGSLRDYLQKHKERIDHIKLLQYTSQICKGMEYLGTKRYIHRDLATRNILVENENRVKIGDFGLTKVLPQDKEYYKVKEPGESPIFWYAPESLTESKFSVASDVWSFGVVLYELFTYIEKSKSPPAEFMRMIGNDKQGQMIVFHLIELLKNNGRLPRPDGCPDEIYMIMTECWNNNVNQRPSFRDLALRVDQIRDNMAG

[11] = biological target: MERTK (UniProt Q12866); experiment: as above
MERTK, sequence (Q12866 whole entry, looked up): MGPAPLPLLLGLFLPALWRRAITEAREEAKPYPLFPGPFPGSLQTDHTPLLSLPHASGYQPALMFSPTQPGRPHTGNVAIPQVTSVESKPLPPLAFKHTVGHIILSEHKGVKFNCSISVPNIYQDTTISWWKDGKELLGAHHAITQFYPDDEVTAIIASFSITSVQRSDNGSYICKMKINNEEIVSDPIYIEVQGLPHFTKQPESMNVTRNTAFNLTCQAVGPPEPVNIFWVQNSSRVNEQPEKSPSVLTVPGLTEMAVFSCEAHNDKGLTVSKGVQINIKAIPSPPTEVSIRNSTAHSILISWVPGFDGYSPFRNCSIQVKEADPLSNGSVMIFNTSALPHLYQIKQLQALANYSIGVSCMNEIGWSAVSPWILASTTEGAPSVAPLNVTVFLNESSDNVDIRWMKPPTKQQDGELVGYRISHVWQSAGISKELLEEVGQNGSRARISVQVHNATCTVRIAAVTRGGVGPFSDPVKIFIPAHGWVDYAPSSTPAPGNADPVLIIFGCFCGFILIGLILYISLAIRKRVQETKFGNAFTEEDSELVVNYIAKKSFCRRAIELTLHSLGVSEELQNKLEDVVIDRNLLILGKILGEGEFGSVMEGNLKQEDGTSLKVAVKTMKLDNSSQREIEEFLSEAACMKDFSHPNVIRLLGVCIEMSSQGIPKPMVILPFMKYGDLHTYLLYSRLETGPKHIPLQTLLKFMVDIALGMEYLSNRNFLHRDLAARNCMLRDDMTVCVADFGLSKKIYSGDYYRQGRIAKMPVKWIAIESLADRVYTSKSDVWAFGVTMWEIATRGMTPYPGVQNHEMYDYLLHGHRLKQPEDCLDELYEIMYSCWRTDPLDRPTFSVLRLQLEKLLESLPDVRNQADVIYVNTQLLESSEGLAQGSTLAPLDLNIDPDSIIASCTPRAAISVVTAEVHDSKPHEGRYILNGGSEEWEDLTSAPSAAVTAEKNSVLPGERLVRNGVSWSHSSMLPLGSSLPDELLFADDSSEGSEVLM

[12] = system: c-Abl (mouse); experiment: as above
[13] = system: c-Src; experiment: as above
[14] = biological target: Grb2 SH2 (UniProt P62993); experiment: SH2 binding enrichment of the phosphorylated peptide, bacterial display (enrichment ratio); higher = better substrate or ligand; peptides without Tyr show the background
Grb2 SH2, sequence (P62993 whole entry, looked up): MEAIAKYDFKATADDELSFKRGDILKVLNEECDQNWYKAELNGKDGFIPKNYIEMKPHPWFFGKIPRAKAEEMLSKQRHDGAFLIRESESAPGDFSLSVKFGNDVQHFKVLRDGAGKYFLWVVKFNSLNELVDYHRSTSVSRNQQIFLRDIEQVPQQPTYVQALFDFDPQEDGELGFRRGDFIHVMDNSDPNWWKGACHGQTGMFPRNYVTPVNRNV

[15] = biological target: SHP2-C SH2; experiment: as above
[16] = biological target: c-Src SH2; experiment: as above
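Wherever SH2 binding enrichment of the phosphorylated peptide, bacterial display is given: peptide library displayed on the E. coli surface as eCPX fusions, selected cells deep-sequenced, score is each peptide's frequency after selection divided by its frequency in the input.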
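Wherever phosphorylation enrichment, bacterial display is given: 11-residue human phosphosite peptides and single-mutation variants displayed on the E. coli surface, counted by deep sequencing, each peptide's frequency after selection divided by its frequency in the unselected input library; frequency after pTyr selection over input frequency; kinase dosed for 20-30% of maximal phosphorylation in three min.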

EPHB2, sequence (P29323 whole entry, looked up): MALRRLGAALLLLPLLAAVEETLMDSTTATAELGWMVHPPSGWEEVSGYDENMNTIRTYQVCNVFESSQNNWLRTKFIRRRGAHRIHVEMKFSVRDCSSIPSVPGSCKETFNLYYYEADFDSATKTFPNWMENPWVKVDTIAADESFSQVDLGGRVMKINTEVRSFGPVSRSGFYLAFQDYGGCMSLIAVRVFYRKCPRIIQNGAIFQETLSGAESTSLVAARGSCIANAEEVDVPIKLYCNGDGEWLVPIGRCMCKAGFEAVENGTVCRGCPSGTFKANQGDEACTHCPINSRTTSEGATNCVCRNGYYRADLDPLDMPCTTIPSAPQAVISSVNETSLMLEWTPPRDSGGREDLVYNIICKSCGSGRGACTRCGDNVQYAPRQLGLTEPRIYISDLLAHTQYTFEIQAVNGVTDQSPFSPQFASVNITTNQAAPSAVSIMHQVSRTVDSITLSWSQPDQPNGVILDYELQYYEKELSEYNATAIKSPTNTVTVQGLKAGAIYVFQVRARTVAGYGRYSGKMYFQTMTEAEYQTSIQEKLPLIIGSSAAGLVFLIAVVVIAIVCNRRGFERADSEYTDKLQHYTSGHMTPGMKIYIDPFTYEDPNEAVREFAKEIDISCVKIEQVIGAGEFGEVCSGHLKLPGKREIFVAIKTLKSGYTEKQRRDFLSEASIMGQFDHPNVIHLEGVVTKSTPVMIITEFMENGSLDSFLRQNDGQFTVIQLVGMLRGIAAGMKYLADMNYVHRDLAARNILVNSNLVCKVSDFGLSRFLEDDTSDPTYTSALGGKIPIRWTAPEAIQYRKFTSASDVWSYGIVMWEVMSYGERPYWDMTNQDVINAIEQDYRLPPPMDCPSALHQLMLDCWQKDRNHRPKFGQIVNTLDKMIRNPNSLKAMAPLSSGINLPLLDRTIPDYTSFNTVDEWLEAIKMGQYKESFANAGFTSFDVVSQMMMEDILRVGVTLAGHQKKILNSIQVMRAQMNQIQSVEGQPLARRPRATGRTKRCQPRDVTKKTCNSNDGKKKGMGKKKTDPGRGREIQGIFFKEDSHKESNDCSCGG
FGFR1, sequence (P11362 whole entry, looked up): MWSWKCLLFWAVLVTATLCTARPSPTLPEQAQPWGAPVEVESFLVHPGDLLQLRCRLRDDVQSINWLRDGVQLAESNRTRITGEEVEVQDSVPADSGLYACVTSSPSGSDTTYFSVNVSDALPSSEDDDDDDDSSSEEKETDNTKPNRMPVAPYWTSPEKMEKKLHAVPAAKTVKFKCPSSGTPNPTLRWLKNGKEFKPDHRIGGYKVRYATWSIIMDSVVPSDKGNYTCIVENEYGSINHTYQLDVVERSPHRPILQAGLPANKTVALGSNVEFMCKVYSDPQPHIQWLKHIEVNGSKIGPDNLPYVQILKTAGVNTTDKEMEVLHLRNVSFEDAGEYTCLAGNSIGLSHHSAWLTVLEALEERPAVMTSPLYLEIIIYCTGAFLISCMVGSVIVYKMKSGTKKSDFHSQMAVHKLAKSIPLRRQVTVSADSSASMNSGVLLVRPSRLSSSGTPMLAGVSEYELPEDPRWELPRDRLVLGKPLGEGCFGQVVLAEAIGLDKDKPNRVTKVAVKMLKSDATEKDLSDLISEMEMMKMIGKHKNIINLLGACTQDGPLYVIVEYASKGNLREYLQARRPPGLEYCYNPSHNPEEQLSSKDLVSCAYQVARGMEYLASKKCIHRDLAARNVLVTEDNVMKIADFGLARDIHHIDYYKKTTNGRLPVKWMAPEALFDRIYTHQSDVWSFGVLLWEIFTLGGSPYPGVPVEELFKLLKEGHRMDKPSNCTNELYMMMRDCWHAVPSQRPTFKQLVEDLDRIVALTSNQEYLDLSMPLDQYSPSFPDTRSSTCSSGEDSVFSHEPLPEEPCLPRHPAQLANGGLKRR

Sequence | phosphorylation enrichment [1] | phosphorylation enrichment [2] | phosphorylation enrichment [3] | phosphorylation enrichment [4] | phosphorylation enrichment [5] | phosphorylation enrichment [6] | phosphorylation enrichment [7] | phosphorylation enrichment [8] | phosphorylation enrichment [9] | phosphorylation enrichment [10] | phosphorylation enrichment [11] | phosphorylation enrichment [12] | phosphorylation enrichment [13] | SH2 binding enrichment [14] | SH2 binding enrichment [15] | SH2 binding enrichment [16]
SGVNKYSTAFG [GJB3_Y16] | 0.613 | 0.375 | 0.384 | 0.4 | 0.454 | 0.394 | 0.614 | 0.437 | 0.409 | 0.604 | 0.425 | 0.461 | 0.434 | 0.84 | 0.658 | 0.428
DDPRTYQKFGF [OAS1_Y362_R361T_YF] | 0.825 | 0.519 | 0.469 | 0.473 | 0.544 | 0.423 | 0.928 | 0.717 | 0.526 | 0.773 | 0.439 | 0.607 | 0.693 | 0.78 | 0.531 | 0.523
CTTIHSNYMCN [TP53_Y234_Y234S] | 0.853 | 0.542 | 0.563 | 0.483 | 0.588 | 0.44 | 0.915 | 0.478 | 0.448 | 0.608 | 0.479 | 0.576 | 0.387 | 1.1 | 1.39 | 1.02
KLPFPYDDPFS [GPX2_Y127_YF] | 1.05 | 0.587 | 0.773 | 0.63 | 0.755 | 0.772 | 1.11 | 0.545 | 0.663 | 0.9 | 0.525 | 1.16 | 0.831 | 1.12 | 0.761 | 3.9
CLGNQYVNVMN [SLC3A1_Y461_R456C] | 1.11 | 0.588 | 0.608 | 0.567 | 0.955 | 0.475 | 1.05 | 0.403 | 0.448 | 1 | 0.336 | 0.689 | 0.437 | 18.2 | 1.11 | 2.27
HICTAYELVLA [DHCR24_Y190] | 1.8 | 0.891 | 1.02 | 3.12 | 2.2 | 8.27 | 1.74 | 0.598 | 0.779 | 1.6 | 1.56 | 1.13 | 2.77 | 1.01 | 0.708 | 0.573
RTEAQYRFIFM [PTPN11_Y511_Q506R_YF] | 1.37 | 0.52 | 0.576 | 0.512 | 1.03 | 0.546 | 1.23 | 0.312 | 0.398 | 1.14 | 0.413 | 0.765 | 0.445 | 0.665 | 0.633 | 0.409
VFSIDYFRVGG [NTRK2_Y706_T704I_YF] | 1.35 | 0.874 | 0.563 | 4.54 | 2.94 | 0.484 | 1.08 | 0.535 | 0.588 | 5.86 | 0.526 | 0.829 | 0.649 | 1.2 | 2.13 | 1.08
PCPANYFAFKI [FAM3D_Y65] | 2.11 | 6.38 | 3.72 | 9.03 | 7.65 | 1.12 | 2.29 | 1.14 | 1.34 | 8.15 | 12.1 | 7.14 | 4.44 | 1.03 | 0.69 | 0.594
NFHRGYHLQVL [CD200R1L_Y138] | 0.755 | 0.483 | 0.475 | 0.453 | 0.606 | 0.478 | 0.835 | 0.5 | 0.375 | 0.54 | 0.351 | 0.787 | 0.353 | 0.963 | 0.827 | 0.54
MPPHIYAITDT [MYH9_Y151] | 0.709 | 1.4 | 0.514 | 0.59 | 0.514 | 0.679 | 0.936 | 1.73 | 1.22 | 0.68 | 4.75 | 0.922 | 2.26 | 0.965 | 0.664 | 7.82
KSSDVYVSFDC [SORL1_Y136_Y141C_YF] | 1.44 | 1.41 | 0.802 | 1.92 | 1.61 | 0.733 | 1.18 | 5.22 | 2.16 | 0.889 | 0.803 | 0.786 | 3.34 | 1.15 | 0.782 | 0.79
EVASVYESYQP [MAVS_Y92_Q93E] | 1.83 | 0.948 | 1.61 | 0.527 | 0.737 | 10.1 | 1.11 | 8.41 | 6.67 | 0.849 | 0.71 | 0.783 | 5.67 | 0.919 | 0.504 | 0.727
GFSDPYVKASL [SYT3_Y470] | 0.568 | 0.329 | 0.436 | 0.444 | 0.4 | 0.488 | 0.722 | 0.374 | 0.38 | 0.646 | 0.391 | 0.544 | 0.393 | 0.796 | 0.801 | 0.452
NGRQCYSCKGN [PLAUR_Y217] | 0.481 | 0.266 | 0.336 | 0.381 | 0.341 | 0.377 | 0.456 | 0.324 | 0.336 | 0.574 | 0.379 | 0.416 | 0.346 | 0.959 | 0.908 | 1.01
LEDDVYRKTCT [XPA_Y257_M256V] | 1.89 | 1.14 | 0.724 | 1.05 | 2.23 | 1.09 | 2.07 | 1 | 1.17 | 2.14 | 0.864 | 1.74 | 1.2 | 0.604 | 0.291 | 0.39
SQETYYRVSNM [ABCD1_Y181_Q178E] | 1.37 | 4.42 | 2.95 | 6.81 | 4.94 | 0.549 | 0.805 | 2 | 3.97 | 3.85 | 3.7 | 1.33 | 2.96 | 0.657 | 0.79 | 0.473
VGNPAYRSFSN [IL4R_Y497_A492V] | 0.518 | 0.368 | 0.417 | 0.412 | 0.435 | 0.509 | 0.546 | 0.441 | 0.329 | 0.608 | 0.374 | 0.478 | 0.376 | 0.862 | 0.547 | 0.405
TTSQLYDAMPI [PDPK1_Y9_V12M] | 0.986 | 8.16 | 6.17 | 0.537 | 0.809 | 12.4 | 0.794 | 6.16 | 8.57 | 0.665 | 9.19 | 0.706 | 3.9 | 0.854 | 0.417 | 0.712
RFLERYIYNPE [HLA-DPB1_Y57_R61P] | 1.1 | 0.755 | 0.675 | 0.55 | 0.671 | 0.636 | 1.15 | 1.75 | 2.11 | 0.935 | 1.5 | 0.68 | 3.08 | 1.17 | 1.28 | 0.966
ADFFDYGRGLS [KHDRBS3_Y304_H306R_YF] | 0.808 | 0.426 | 0.522 | 0.414 | 0.702 | 0.4 | 0.746 | 0.518 | 0.421 | 0.798 | 0.369 | 0.59 | 0.521 | 0.82 | 0.554 | 0.625
NTYEKYWPFYQ [GATM_Y103] | 1.41 | 6.55 | 8.15 | 2.76 | 1.89 | 1.92 | 2.3 | 5.72 | 4.39 | 1.93 | 5.5 | 1.17 | 5 | 1.14 | 0.762 | 1.24
AMGAVYQAAAL [HYOU1_Y421] | 0.686 | 0.534 | 0.512 | 0.58 | 0.612 | 1.63 | 0.615 | 1.91 | 3.19 | 0.566 | 0.431 | 0.98 | 2.81 | 0.79 | 0.503 | 1.08
NSGFFYKTAEE [CCT6B_Y250] | 1.31 | 0.655 | 0.722 | 0.556 | 0.74 | 0.486 | 1.41 | 0.462 | 0.445 | 1.44 | 0.435 | 0.888 | 0.476 | 0.734 | 0.586 | 0.546
LAAAGYDVKKN [H1-3_Y72_E75K] | 0.414 | 0.355 | 0.249 | 0.383 | 0.331 | 0.305 | 0.591 | 0.319 | 0.288 | 0.381 | 0.28 | 0.414 | 0.324 | 0.66 | 0.734 | 0.323
NAPNSYGRRPI [CDKN2A_Y44] | 1.23 | 0.581 | 1.21 | 0.692 | 0.81 | 1.2 | 0.952 | 0.678 | 0.757 | 0.76 | 0.713 | 0.885 | 0.75 | 0.726 | 0.799 | 0.392
RLQEDYDHSYY [ESD_Y258_G257D] | 1.78 | 0.814 | 0.811 | 0.923 | 1.03 | 0.572 | 1.55 | 0.824 | 0.781 | 1.56 | 0.754 | 0.943 | 1.06 | 0.932 | 0.741 | 1.16
FLAVGYHKTHI [IDS_Y225_P228T] | 0.784 | 0.548 | 0.484 | 0.429 | 0.649 | 0.447 | 0.946 | 0.477 | 0.469 | 0.971 | 0.441 | 0.638 | 0.4 | 1.23 | 1.37 | 1.03
AIFEGYALPHA [ACTC1_Y171_P166A_YF] | 0.732 | 0.452 | 0.401 | 0.549 | 0.535 | 0.605 | 0.801 | 0.472 | 0.43 | 0.539 | 0.726 | 1.2 | 0.414 | 0.932 | 0.518 | 5.11
